Experimental data: article PMC12248025 (bioRxiv, 2025)
Several values for one entry are separate records, joined by “and”; a condition that tells them apart may be missing. Equal values may be shown once.

Molecular target: the molecule itself
Test: cryo-EM structure

B1: human IMPDH2 S160del (hIMPDH2-S160del) (enzyme)
chain: not shown
B1 was tested, and the “stoichiometry N” value was 4 and 8.
